Data on 167 variants can be found in the RNAGym collection of RNA variant scans (doi:10.7554/elife.80360).

B1: HDV Ribozyme (parent)
chain: GGCCGGCAUGGUCCCAGCCUCCUCGCUGGCGCCGGCUGGGCAACAUUCCGAGGGGACCGUCCCCUCGGUAAUGGCGAAUGGGACCCA

Variants of B1 are the subject of the series. Kind of series: self-cleavage, relative activity (ratio to wild type); higher = more cleavage; co-transcriptional.
Take C57A A78G: the self-cleavage amounted to 0.63. With G55C G81U the figure was 0.256; with A56G G74C, 0.125. In the case of C57G G81U, the self-cleavage came out at 0.388.

In the case of G54A G68C, the self-cleavage turned out to be 0.173.

With G53C U65A, the self-cleavage is 0.629. To G53C U65C belongs 0.772. To G54A U60G belongs 1.03; to G54U C62A, 0.99; to C57G G73U, 0.464. With G53U C86G the figure was 1.12; with C57G C64U, 1.05; with C57G C64G, 0.849. Turning to C57G C64A, the self-cleavage was 1.04.

For the variant A56G C61U, the self-cleavage is 1.08. With G53U C84G the figure was 0.554; with G53U C84A, 0.754; with G54C A87C, 1.02. To C57A C62A belongs 0.997. Turning to A56G G80U, the self-cleavage worked out at 0.165. With G54U C75G the figure was 0.114. With G54C U60G the figure was 0.895; with G53U G80U, 0.256.

For G53U G80C, the self-cleavage is 0.304. In the case of G53U G80A, the self-cleavage was found to be 0.419. G55U A56U: the self-cleavage worked out at 0.797. With G55U C58A the figure was 0.843. A56C G80U: the self-cleavage came to 0.253.

In the case of C58A A78U, the self-cleavage is 0.424. Take C57A: the self-cleavage was found to be 1.05. For C57G, the self-cleavage was determined as 1.02. To C57U belongs 0.993; to G55C U60C, 1.07; to G54C C64G, 0.787. With G53U C75A the figure was 0.117; with A56G C66U, 0.937; with A56G C66A, 0.909. With G54C A78U the figure was 0.324; with G54C A78G, 0.507. G54C A78C: the self-cleavage stood at 0.191.

Take A56C C86U: the self-cleavage was found to be 1.03.

G53U A78U: the self-cleavage came out at 0.251. With A56U U69G, the self-cleavage stood at 0.959.

In the case of G53U G82C, the self-cleavage stood at 0.381. To A56U U65G belongs 0.928; to A56U U65C, 1.04; to A56U U72G, 0.734. To C57A A87C belongs 1.05; to C57A A87U, 1.13. Consider G55C A56C, for which the self-cleavage came to 0.969.

Turning to G55C A56U, the self-cleavage was 1.01.

Regarding G54U C66U, the self-cleavage was 0.914. With C57G C63G, the self-cleavage was found to be 1.09. To C57G C63U belongs 1.12; to G55U C61G, 1.11. For C57U A70U, the self-cleavage was 1.05.

On to C57U C61U, for which the self-cleavage was found to be 0.843. To G53U G55A belongs 1.18; to G53C G81C, 0.0665; to G55A G59C, 1.06. To G53C G59C belongs 0.958; to G53C G59A, 0.95; to G55A G68C, 0.777. To A56G C63U belongs 0.682; to A56G C63G, 0.59. Consider G55A U79C, for which the self-cleavage worked out at 0.511. On to G54C C84U, for which the self-cleavage worked out at 0.665. To G54U G59A belongs 1; to G54U G59U, 1.14. Regarding G53U C85G, the self-cleavage worked out at 0.818. In the case of G55C A71G, the self-cleavage was found to be 0.912. On to G55U C66G, for which the self-cleavage was found to be 0.901. In the case of G54C G55A, the self-cleavage worked out at 1.08. With G55C C57A the figure was 1.06. As for G53U A71U, the self-cleavage was 0.92. For G55C A77G, the self-cleavage came to 1.1. With G55C A77C the figure was 0.495. To A56U G73C belongs 0.698; to A56U G73U, 0.415; to A56U G73A, 0.752.

As to G53U G67C, the self-cleavage turned out to be 0.534. For C57A U72C, the self-cleavage turned out to be 0.856. To G54U A56U belongs 0.953; to G55A U60C, 0.9. With A56G A83U the figure was 0.684. With A56G A83G, the self-cleavage stood at 0.831. As for C57U G81U, the self-cleavage stood at 0.353. With G55U G68A the figure was 1.03. With A56U A77U the figure was 0.623; with G55U C75A, 0.153. As to G55C C84A, the self-cleavage came out at 1.07.

Consider G54A G67U, for which the self-cleavage is 0.657. With A56U G81U the figure was 0.381.

For A56U G81C, the self-cleavage is 0.312.

G54C G68C: the self-cleavage stood at 0.346. With G54U C84G the figure was 0.529; with G54U C84U, 0.808. To G54U C84A belongs 0.724. For C57A C84G, the self-cleavage is 0.727. For the variant C57A C84A, the self-cleavage was determined as 0.789.

Regarding A56U G82U, the self-cleavage amounted to 0.462. In the case of A56U G82A, the self-cleavage was 0.543. To A56G G67A belongs 1.09; to G54A C85A, 0.917. To G54A C85U belongs 0.808; to G55U U79A, 0.635; to G55U G81A, 0.287. On to A56U C57U, for which the self-cleavage came to 0.886. To A56U C57G belongs 1.08; to A56U C57A, 0.966; to G53U G68A, 0.903. For the variant A56U A83C, the self-cleavage is 0.499. With A56U A83U, the self-cleavage came out at 0.318. In the case of G54C G73C, the self-cleavage came out at 0.502. With A56U C63A the figure was 0.969; with A56C G73A, 0.658; with A56C G73U, 0.521.

In the case of G55A C63U, the self-cleavage worked out at 0.913. Turning to A56C C62A, the self-cleavage stood at 0.935. Consider G54C C86G, for which the self-cleavage stood at 1.02. With G54C C86A the figure was 0.962.

For A56U G59A, the self-cleavage was 0.926.

Take C57G C61G: the self-cleavage is 1.08. Take G55C G68C: the self-cleavage stood at 0.752. As for G54U A70C, the self-cleavage is 0.515. G53U C66A: the self-cleavage is 0.937. Consider G55A G82U, for which the self-cleavage is 0.241.

Take C57A U79G: the self-cleavage was found to be 0.831. Consider G53C U69G, for which the self-cleavage is 1.14. To G53C U69C belongs 1.01; to G54C C57U, 0.997. With A56C A77G the figure was 1.02; with G55C C58U, 1.07. Regarding G55C C58A, the self-cleavage stood at 1.15. As for G55U C62U, the self-cleavage turned out to be 0.925.

As for G55U C62A, the self-cleavage was 0.973. For the variant G54C G59C, the self-cleavage is 1.21. To G54U U79A belongs 0.982. With G54U U79C, the self-cleavage was 0.513. With G53C G74A the figure was 0.405. As to G53U C62A, the self-cleavage worked out at 0.901. Consider G54U C63U, for which the self-cleavage amounted to 0.892. For C57U A83U, the self-cleavage came out at 0.475. Take G53C G76A: the self-cleavage worked out at 0.882. With G53C G76C the figure was 0.991; with A56G C75U, 0.17. To C57A G67A belongs 0.926; to G53C G68C, 0.372. G55C U79G: the self-cleavage came out at 0.802.

For G53U C61U, the self-cleavage amounted to 0.994.

In the case of G53U C61G, the self-cleavage turned out to be 0.899. As for C57G G80U, the self-cleavage turned out to be 0.25. To G54U G80U belongs 0.203; to G54U G80A, 0.257; to G54A C63A, 0.831. As for G55C C62U, the self-cleavage was 0.946. As to C57A G82U, the self-cleavage came out at 0.585. To G55A U69A belongs 0.857.

G55A U72G: the self-cleavage was 0.415.

Turning to G55A U72C, the self-cleavage stood at 1. With A56G G59U the figure was 1.06; with C57U U69A, 1.15; with C57U U69C, 0.831. With A56C C66U the figure was 0.861; with A56C C66G, 0.99; with G55A G74U, 0.541. Take A56C C64G: the self-cleavage came to 0.831.
